Patent publication US20160257710A1, “SELECTIVE INHIBITORS OF PROTEINASE 3” (INSERM (INSTITUT NATIONAL DE LA SANTÉ ET LA RECHERCHE …, priority 2013, published 2016)
Where no end group is shown, it is not given here. [ ]: non-standard residue; d: D form. AlaP = not defined here

What was measured:
Assay type in all cases: biochemical
CatG [1] = molecular target: T1, CatG (Homo sapiens, UniProt P08311); assay: Inhibition of protease activity in crude lung secretions of patients (IPF, cystic fibrosis); conditions: 30 min incubation, IPF and CF samples
T1 sequence (P08311 21-244): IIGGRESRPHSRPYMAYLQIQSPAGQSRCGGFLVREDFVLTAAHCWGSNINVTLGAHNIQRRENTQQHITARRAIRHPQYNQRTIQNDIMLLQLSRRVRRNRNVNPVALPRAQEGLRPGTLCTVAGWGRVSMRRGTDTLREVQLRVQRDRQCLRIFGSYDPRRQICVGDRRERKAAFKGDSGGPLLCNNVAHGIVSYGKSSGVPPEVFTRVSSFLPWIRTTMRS

PR3 [2] = molecular target: T2, PR3 (Homo sapiens, UniProt P24158); assay: Inhibition of PR3 in a lysate of purified human neutrophils; conditions: conditions as with purified proteases
T2 construct: in a lysate of purified human neutrophils; endogenous in cells; host or cells: purified human neutrophils (lysate)
T2 sequence (P24158 28-248): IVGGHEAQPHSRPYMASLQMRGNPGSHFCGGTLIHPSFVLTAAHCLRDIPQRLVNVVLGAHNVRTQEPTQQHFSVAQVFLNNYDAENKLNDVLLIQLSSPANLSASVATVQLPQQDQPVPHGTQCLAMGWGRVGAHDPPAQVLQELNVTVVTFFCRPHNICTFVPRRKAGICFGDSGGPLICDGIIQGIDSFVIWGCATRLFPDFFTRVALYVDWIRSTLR
From the text: We first studied the stability and the selectivity of compound 1, 2 and their biotinylated derivatives in a lysate of purified human neutrophils. […] Further, PR3 was selectively inactivated in the neutrophil lysate as shown by western blotting using biotinylated inhibitors.

Elastase = molecular target: T3, Elastase (Homo sapiens, UniProt P08246); assay: Protease inhibition assay, second order rate constant kobs/[I] (method of Tian and Tsou); conditions: n.s where no significant inhibition
T3 sequence (P08246 30-267): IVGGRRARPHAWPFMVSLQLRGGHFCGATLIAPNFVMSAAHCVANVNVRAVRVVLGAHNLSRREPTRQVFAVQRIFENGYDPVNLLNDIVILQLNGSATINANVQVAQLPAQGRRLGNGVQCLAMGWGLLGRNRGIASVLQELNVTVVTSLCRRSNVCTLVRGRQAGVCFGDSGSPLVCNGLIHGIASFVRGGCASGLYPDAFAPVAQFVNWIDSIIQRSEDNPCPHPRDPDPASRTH
Protocol: The inactivation of proteases by substrate analog inhibitors in the presence of the substrate by competition for the enzyme-binding site, was measured by the method of Tian and Tsou (17). In this system, product formation in the presence of an irreversible inhibitor approaches an asymptote, as described by
log([P∞]−[P])=log [P∞]−0.43A[Y]t
where [P∞] is the concentration of product formed at time approaching infinity, [P] is the concentration of product at time t, [Y] is the inhibitor concentration, and A is the apparent inhibition rate constant in the presence of the substrate. A is given by
where k+0 is the rate constant for association of the inhibitor with the enzyme, K^−1 is the inverted Michaelis constant, and [S] the substrate concentration. The apparent inhibition rate constant A is the slope of a plot of log([P∞]−[P]) against t, to give the second-order rate constant of inhibition k+0

HNE [3] = molecular target: T4, HNE (Homo sapiens, UniProt P08246); assay: Residual activity of purified protease with FRET substrate in presence of increasing amounts of compound
T4 sequence (P08246 30-267): T3 sequence (P08246 30-267)
From the text: (§1) Phosphonate inhibitors and their biotinylated and fluorescent derivatives were synthesized, purified and controlled by mass spectrometry as reported. Their purity was checked by HPLC (data not shown). Purified Ac-Asp-Tyr-Asp-Ala^P(O—C6H4-4-Cl)2 (compound 1) and Ac-Pro-Tyr-Asp-Ala^P(O—C6H4-4-Cl)2 (compound 2) were first assayed for their inhibitory properties by measuring the residual activity of the human neutrophil serine proteases PR3, HNE and CatG in the presence of increasing amounts of each compound. We used for this purpose the FRET substrates that we developed previously for each protease (18). An almost complete inhibition of PR3 (1 nM final) was obtained after a 30 min incubation time with 20 μM of compound 1 (FIG. 1) and 0.3 μM of compound 2 (FIG. 2). Recombinant PR3K99L, […], HNE and CatG were used in the same experimental conditions. […] This emphasizes the importance of the S2 and S4 subsites to discriminate between PR3 and HNE specificities. Significant inhibition of HNE was obtained using about 100 times more Ac-Pro-Tyr-Asp-Ala^P(O—C6H4-4-Cl)2 than required to inhibit PR3. […] We confirmed this observation kinetically by measuring the second order rate constants kobs/l by competition experiments between the PR3 substrate and each inhibitor (17). As expected the second order rate constant kobs/l for compound 2 was about 100 times greater than that for compound 1 (see Table 1).

PR3 [4] = molecular target: T2, PR3; assay: as above; conditions: PR3 1 nM final, 30 min incubation
From the text: as §1

CatG [5] = molecular target: T1, CatG; assay: as above; conditions: CatG 1 nM, same experimental conditions as PR3
From the text: as §1

HNE [6] = molecular target: T4, HNE; assay: Inhibition of protease activity in crude lung secretions of patients (IPF, cystic fibrosis); conditions: 30 min incubation, IPF and CF samples

CatG activity in crude lung secretions (CatG [1]): remained unchanged
PR3 activity in neutrophil lysate (PR3 [2]): totally inactivated
Elastase kobs/[I] (Elastase): n.s
amount of inhibitor for significant inhibition of HNE relative to that required to inhibit PR3 (HNE [3]): about 100 times
inhibition of HNE (HNE [3]; HNE 1 nM, same experimental conditions as PR3): no significant inhibition
concentration giving almost complete inhibition of PR3 (PR3 [4]): 0.3 µM
inhibition of CatG (CatG [5]): no significant inhibition
HNE activity in crude lung secretions (HNE [6]): remained unchanged
Substance: Ac-Pro-Tyr-Asp-Ala^P(O—C6H4-4-Cl)2 (Ac-PYD[AlaP]; not fully specified (C-terminus); printed as Ac-Pro-Tyr-Asp-Ala^P(O—C6H4-4-Cl)2; reading uncertain; also: C-terminal Ala as phosphonate analogue (Ala^P)) [Compound 2]
